Reference: article PMC9172573, “Covalent labeling of a chromatin reader domain using proximity-reactive cyclic peptides†” (Chemical Science, 2022)
Square brackets hold non-standard residues; d marks the D form. Ends that are not written are not given here. Peptide text beside a SMILES is read from it. Lys(Me3) = C[N+](C)(C)CCCC[C@H](N)C(=O)O; fluorescent label = not defined here; Arg(Me) = CNC(=N)NCCC[C@H](N)C(=O)O; Aib = CC(C)(N)C(=O)O; Me3 = trimethyl

How the values were obtained:
[1] = oxyguanidino / guanidino side-chain group; cited from earlier work
[2] = biological target: His6-MBP-PHD3 (PHD3 domain of histone demethylase KDM5A) (UniProt P29375); experiment: fluorescence polarisation; competition: recombinant His6-MBP-PHD3 incubated with the 10mer H3K4me3 tracer (C-terminal fluorescent label), then varying concentrations of the competing peptide; Ki
[3] = biological target: His6-MBP-PHD3 (PHD3 domain of histone demethylase KDM5A) (UniProt P29375); experiment: FP
[4] = biological target: recombinant His6-MBP-PHD3 (PHD3 domain of KDM5A) (Homo sapiens, UniProt P29375)
trypsin = trypsin stability assay; assay type: in vitro ADME; details: peptide and trypsin 1:1 w/w, 1x PBS, RT, HPLC
Experimental: Trypsin stability assay: Peptide and trypsin (1:1 w/w) were mixed in 1x PBS buffer and the resulting mixture was incubated at RT. Proteolysis reactions at a given time point was quenched by adding HCl. The proteolysis process was monitored by subjecting the quenched mixture onto r everse-phase HPLC column monitoring at 2 14 nm [H2O (A):MeCN (B); 5% to 100% solvent B over 23 min].
Fig. S2a: Chromatograms of WT H3K4me3 hexapeptide ( 1) before and after incubation with trypsin ( t = < 5 min).
(1 picture or pasted object on this page, not shown here)

[5] = biological target: T1, His6-MBP-PHD3 (PHD3 domain of histone demethylase KDM5A) (UniProt P29375 1609-1659); experiment: FP
T1 chain: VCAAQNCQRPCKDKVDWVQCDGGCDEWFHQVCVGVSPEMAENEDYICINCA

[6] = biological target: T1, His6-MBP-PHD3 (PHD3 domain of histone …); experiment: FP
[7] = biological target: T1, His6-MBP-PHD3 (PHD3 domain of histone …); experiment: FP
PHD3 K1622A = biological target: T2, PHD3 K1622A (UniProt P29375 1609-1659, K1622A); experiment: FP
T2 sequence: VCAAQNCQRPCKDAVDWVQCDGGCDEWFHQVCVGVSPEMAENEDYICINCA

PHD3 K1620A = biological target: T3, PHD3 K1620A (UniProt P29375 1609-1659, K1620A); experiment: FP
T3 sequence: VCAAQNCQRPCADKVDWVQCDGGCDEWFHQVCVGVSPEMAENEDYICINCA

[8] = biological target: T4, PHD3 double mutant K1620A/K1622A (UniProt P29375 1609-1659, K1620A | K1622A); experiment: FP
T4 sequence: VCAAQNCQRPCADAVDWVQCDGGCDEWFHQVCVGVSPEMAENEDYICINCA

[9] = biological target: T5, His6-MBP-PHD3 (PHD3 domain of histone demethylase KDM5A) (UniProt P29375 1609-1659); experiment: fluorescence polarisation; competition: recombinant His6-MBP-PHD3 incubated with the 10mer H3K4me3 tracer (C-terminal fluorescent label), then varying concentrations of the competing peptide; Ki; details: both partners purified
T5 construct: KDM5A, third (C-terminal) PHD finger, PHD3; holds K1620, K1622, W1625, W1635; also called recombinant His6-MBP-PHD3 protein; KDM5A-PHD3; source: recombinant; not shown: His6, N-terminal, kept; MBP, N-terminal, kept
T5 sequence: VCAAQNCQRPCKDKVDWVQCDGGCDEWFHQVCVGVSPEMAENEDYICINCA

**Q.** Which pKa [1] does the source give for NC(N)=NCCCC[C@H](N)C(=O)O [homo-arginine] here?
**A.** ~12.48

**Q.** Which Ki [2] does the source give for “H3 6mer peptide 14 (K4me3 replaced with homo-arginine) (from UniProt P68431 2-7)” here?
**A.** 690 nM

**Q.** For N=C(N)NOCC[C@H](N)C(=O)O [canavanine], which pKa [1] is on record?
**A.** 7.01

**Q.** With “H3K4me3 6mer peptide 4 (A1 sidechain modified) (from UniProt P68431 2-7)” as the molecule, how does the Ki [3] read?
**A.** 12000 nM

**Q.** For C[C@@H](O)[C@H](NC(=O)[C@H](CCC(N)=O)NC(=O)[C@H](CCCC[N+](C)(C)C)NC(=O)[C@@H](NC(=O)[C@H](CCCNC(=N)N)NC(=O)[C@@H]1CCCN1)[C@@H](C)O)C(N)=O [compound 6] (H-PRT[Lys(Me3)]QT-NH2), which Ki [4] is on record?
**A.** 2700 ± 640 nM

**Q.** With C[C@H](N)C(=O)N[C@@H](CCCNC(=N)N)C(=O)N[C@H](C(=O)N[C@@H](CCCC[N+](C)(C)C)C(=O)N[C@@H](CCC(N)=O)C(=O)N[C@@H](C)C(=O)N[C@@H](C)C(=O)N[C@@H](CCCNC(=N)N)C(=O)N[C@@H](CCCCN)C(=O)N[C@@H](CO)C(N)=O)[C@@H](C)O [T6A] as the molecule, how does the Ki [4] read?
**A.** 150 ± 47 nM

**Q.** For N=C(N)NCCC[C@H](N)C(=O)O [arginine], which pKa [1] is on record?
**A.** ~12.48

**Q.** Which Ki [2] does the source give for “H3K4me3 6mer peptide 9 (R2 replaced with homo-arginine) (from UniProt P68431 2-7)” here?
**A.** 740 nM

**Q.** With C[C@@H](O)[C@H](NC(=O)[C@H](CCC(N)=O)NC(=O)[C@H](CCCC[N+](C)(C)C)NC(=O)[C@@H](NC(=O)[C@H](CCCNC(=N)N)NC(=O)[C@@H](N)CO)[C@@H](C)O)C(N)=O [compound 5] (H-SRT[Lys(Me3)]QT-NH2) as the molecule, how does the Ki [4] read?
**A.** 1700 ± 300 nM

**Q.** With “H3K4me3 6mer peptide 8 (R2 replaced with canavanine) (from UniProt P68431 2-7)” as the molecule, how does the Ki [2] read?
**A.** 2300 nM

**Q.** Which tryptic stability (trypsin) does the source give for C[C@H](N)C(=O)N[C@@H](CCCNC(=N)N)C(=O)N[C@H](C(=O)N[C@@H](CCCC[N+](C)(C)C)C(=O)N[C@@H](CCC(N)=O)C(=O)N[C@H](C(N)=O)[C@@H](C)O)[C@@H](C)O [compound 1, ARTK(me3)QT] (H-ART[Lys(Me3)]QT-NH2) here?
**A.** highly susceptible to tryptic digestion

**Q.** With ARTAQTARKS [H3 10mer peptide, K4 replaced with Ala] as the molecule, how does the Ki [5] read?
**A.** 30000 nM

**Q.** With [Aib]RT[Lys(Me3)]QT [2-aminoisobutyric acid-containing peptide 7] as the molecule, how does the Ki [6] read?
**A.** 310 nM

**Q.** With A[Arg(Me)]T[Lys(Me3)]QT [H3K4me3 6mer peptide 10 (R2 guanidino group monomethylated)] as the molecule, how does the Ki [6] read?
**A.** 220 nM

**Q.** Which Ki [5] does the source give for ART[Lys(Me3)]QTAAKS [R8A] here?
**A.** 69 nM

**Q.** For ART[Lys(Me3)]QTARAS [K9A], which Ki [5] is on record?
**A.** 28 nM

**Q.** For ART[Lys(Me3)]QTARK (not fully specified) [9mer], which Ki [5] is on record?
**A.** 15 nM

**Q.** For ART[Lys(Me3)]QTAR (not fully specified) [8mer], which Ki [5] is on record?
**A.** 54 nM

**Q.** With AAT[Lys(Me3)]QTARKS [H3K4me3 10mer peptide, R2 replaced with Ala] as the molecule, how does the Ki [5] read?
**A.** 560 nM

**Q.** For ART[Lys(Me3)]YT [H3K4me3 6mer peptide 15 (Q5 replaced with tyrosine)], which Ki [6] is on record?
**A.** 440 nM

**Q.** With Ac-ART[Lys(Me3)]QT [N-terminally acetylated H3K4me3 6mer peptide (2)] as the molecule, how does the Ki [6] read?
**A.** 76000 nM

**Q.** With Me-ART[Lys(Me3)]QT [N-terminally methylated H3K4me3 6mer peptide (3)] as the molecule, how does the Ki [6] read?
**A.** 150 nM

**Q.** Which results are given for ART[Lys(Me3)]QTARKS-{fluorescent label} (reading uncertain) [10mer H3K4me3 tracer containing a C-terminal fluorescent label]?
**A.** Kd [7]: 83 nM; Kd (PHD3 K1622A): 160 nM; Kd (PHD3 K1620A): 58 nM; Kd [8]: 71 nM

**Q.** With ART[Lys(Me3)] (not fully specified) [4mer] as the molecule, how does the Ki [5] read?
**A.** 2700 nM

**Q.** For ARV[Lys(Me3)]QT [H3K4me3 6mer peptide 13 (T3V)], which Ki [6] is on record?
**A.** 240 nM

**Q.** For ART[Lys(Me3)]ATARKS [H3K4me3 10mer peptide Q5A], which Ki [5] is on record?
**A.** 59 nM

**Q.** For ART[Lys(Me3)]QTA (not fully specified) [7mer], which Ki [5] is on record?
**A.** 43 nM

**Q.** Which Ki [5] does the source give for ARA[Lys(Me3)]QTARKS [H3K4me3 10mer peptide, T3 replaced with Ala] here?
**A.** 650 nM

**Q.** With ART[Lys(Me3)]QTARKA [S10A] as the molecule, how does the Ki [5] read?
**A.** 12 nM

**Q.** Which Ki [9] does the source give for ARTK(Me3)QT [hexapeptide ARTK(me3)QT (1)] here?
**A.** 130 nM

B1: sulfone cyclopeptide C-20c (peptide, UniProt P68431 2-7, looked up)
peptide: ARTKQC
modifications: not fully specified; Cys at 6; ε-amino group of dimethyllysine 4 stapled to the Cys6 sulfur with 1,2-bis(bromomethyl)benzene, thioether oxidised to the sulfone
notes: Full-length, cleaved form of intermediate C-20; also called series C; source: synthetic peptide, Fmoc-SPPS on Rink amide resin
**Q.** For B1, which “fold decrease in binding affinity (against the thioether C-18c, as read)” value [9] is on record?
**A.** 5 fold
